Assay results published in article PMC11132685.

How the values were obtained:
Assay in all cases: SEC-MALS; purified NACHOs; oligomeric state; conditions not given
[1] = biological target: tetrabrachion-stabilised recombinant N2 NA (NACHO) of A/VICTORIA/361/2011 (not stated | influenza A virus (H3N2) A/VICTORIA/361/2011)
[2] = biological target: tetrabrachion-stabilised recombinant N2 NA (NACHO) of A/PORTOALEGRE/LACENRS2376/2014 (not stated | influenza A virus (H3N2) A/PORTOALEGRE/LACENRS2376/2014)
[3] = biological target: tetrabrachion-stabilised recombinant N2 NA (NACHO) of A/OHIO/13/2017 (not stated | influenza A virus (H3N2) A/OHIO/13/2017)
[4] = biological target: tetrabrachion-stabilised recombinant N2 NA (NACHO) of A/HELSINKI/823/2013 (not stated | influenza A virus (H3N2) A/HELSINKI/823/2013)
[5] = biological target: tetrabrachion-stabilised recombinant N2 NA (NACHO) of A/BRISBANE/273/2016 (not stated | influenza A virus (H3N2) A/BRISBANE/273/2016)
[6] = biological target: tetrabrachion-stabilised recombinant N2 NA (NACHO) of A/HELSINKI/941/2013 (not stated | influenza A virus (H3N2) A/HELSINKI/941/2013)
[7] = biological target: tetrabrachion-stabilised recombinant N2 NA (NACHO) of A/SINGAPORE/INFIMH160019/2016 (not stated | influenza A virus (H3N2) A/SINGAPORE/INFIMH160019/2016)
[8] = biological target: tetrabrachion-stabilised recombinant N2 NA (NACHO) of A/PARIS/2379/2014 (not stated | influenza A virus (H3N2) A/PARIS/2379/2014)
[9] = biological target: tetrabrachion-stabilised recombinant N2 NA (NACHO) of A/HONGKONG/4801/2014 (not stated | influenza A virus (H3N2) A/HONGKONG/4801/2014)
[10] = biological target: tetrabrachion-stabilised recombinant N2 NA (NACHO) of A/HATAY/4990/2016 (not stated | influenza A virus (H3N2) A/HATAY/4990/2016)
[11] = biological target: tetrabrachion-stabilised recombinant N2 NA (NACHO) of A/SWEDEN/3/2017 (not stated | influenza A virus (H3N2) A/SWEDEN/3/2017)
[12] = biological target: tetrabrachion-stabilised recombinant N2 NA (NACHO) of A/STOCKHOLM/14/2012 (not stated | influenza A virus (H3N2) A/STOCKHOLM/14/2012)
[13] = biological target: tetrabrachion-stabilised recombinant N2 NA (NACHO) of A/ANKARA/2396/2015 (not stated | influenza A virus (H3N2) A/ANKARA/2396/2015)
[14] = biological target: tetrabrachion-stabilised recombinant N2 NA (NACHO) of A/TEXAS/50/2012 (not stated | influenza A virus (H3N2) A/TEXAS/50/2012)
[15] = biological target: tetrabrachion-stabilised recombinant N2 NA (NACHO) of A/CATALONIA/9503S/2017 (not stated | influenza A virus (H3N2) A/CATALONIA/9503S/2017)

## tetrabrachion-stabilised recombinant N2 NA (NACHO) of A/VICTORIA/361/2011 (enzyme)
[1]
  stoichiometry N: 4

## tetrabrachion-stabilised recombinant N2 NA (NACHO) of A/PORTOALEGRE/LACENRS2376/2014 (enzyme)
[2]
  stoichiometry N: 4

## tetrabrachion-stabilised recombinant N2 NA (NACHO) of A/OHIO/13/2017 (enzyme)
[3]
  stoichiometry N: 4

## tetrabrachion-stabilised recombinant N2 NA (NACHO) of A/HELSINKI/823/2013 (enzyme)
[4]
  stoichiometry N: 4

## tetrabrachion-stabilised recombinant N2 NA (NACHO) of A/BRISBANE/273/2016 (enzyme)
[5]
  stoichiometry N: 4

## tetrabrachion-stabilised recombinant N2 NA (NACHO) of A/HELSINKI/941/2013 (enzyme)
[6]
  stoichiometry N: 4

## tetrabrachion-stabilised recombinant N2 NA (NACHO) of A/SINGAPORE/INFIMH160019/2016 (enzyme)
[7]
  stoichiometry N: 4

## tetrabrachion-stabilised recombinant N2 NA (NACHO) of A/PARIS/2379/2014 (enzyme)
[8]
  stoichiometry N: 4

## tetrabrachion-stabilised recombinant N2 NA (NACHO) of A/HONGKONG/4801/2014 (enzyme)
[9]
  stoichiometry N: 4

## tetrabrachion-stabilised recombinant N2 NA (NACHO) of A/HATAY/4990/2016 (enzyme)
[10]
  stoichiometry N: 4

## tetrabrachion-stabilised recombinant N2 NA (NACHO) of A/SWEDEN/3/2017 (enzyme)
[11]
  stoichiometry N: 4

## tetrabrachion-stabilised recombinant N2 NA (NACHO) of A/STOCKHOLM/14/2012 (enzyme)
[12]
  stoichiometry N: 4

## tetrabrachion-stabilised recombinant N2 NA (NACHO) of A/ANKARA/2396/2015 (enzyme)
[13]
  stoichiometry N: 4

## tetrabrachion-stabilised recombinant N2 NA (NACHO) of A/TEXAS/50/2012 (enzyme)
[14]
  stoichiometry N: 4

## tetrabrachion-stabilised recombinant N2 NA (NACHO) of A/CATALONIA/9503S/2017 (enzyme)
[15]
  stoichiometry N: 4
